The chains are these.
T1: Trypanosoma brucei histone H2A (Trypanosoma brucei brucei, UniProt Q57YA3 2-134)
T1 construct: also called Tb H2A
T1 sequence: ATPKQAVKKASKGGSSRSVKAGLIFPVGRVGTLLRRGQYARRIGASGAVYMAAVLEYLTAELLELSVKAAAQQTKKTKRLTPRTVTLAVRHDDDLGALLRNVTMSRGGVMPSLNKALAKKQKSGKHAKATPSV

B1: Trypanosoma brucei histone H2B (natural protein, Trypanosoma brucei brucei)
chain: ATPKSTPAKTRKEAKKTRRQRKRTWNVYVSRSLRSINSQMSMTSRTMKIVNSFVNDLFERIAAEAATIVRVNRKRTLGARELQTAVRLVLPADLAKHAMAEGTKAVSHASS
notes: also called Tb H2B
B2: Trypanosoma brucei histone H4 (natural protein)
chain: not shown
notes: also called Tb H4

Experiment [1] concerns the target T1, Trypanosoma brucei histone H2A. The experiment is described as follows: cryo-EM structure. To be noted: both partners purified.
The target in experiment [2] is B1. The experiment in a line: cryo-EM structure. Particulars: both partners purified.

On to B1, for which, in experiment [1], the binding result was “binds”.
Turning to B2, the binding result in experiment [2] is reported as “binds”.

These data come from publication PMC10450195, “Histone divergence in trypanosomes results in unique alterations to nucleosome structure” (Nucleic Acids Research, 2023).
